Results as given in US20030195151A1.

Key:
[1] = target: endoxylanase M1 from Trichoderma viride (family 11), Megazyme (Trichoderma viride); test: cell-based or functional assay
[2] = target: endoxylanase M4 from Aspergillus niger (family 11), Megazyme (Aspergillus niger); test: cell-based or functional assay
[3] = target: endoxylanase M6 from a rumen microorganism culture filtrate, Megazyme; test: cell-based or functional assay
[4] = target: endoxylanase from Bacillus subtilis (family 11), NV Puratos (Bacillus subtilis) (UniProt P18429); test: cell-based or functional assay
[5] = target: mixture of ‘TAXI’-like endoxylanase inhibitors obtained after the affinity purification step of example 3, immobilised on NHS-activated Sepharose 4 Fast Flow; test: affinity chromatography on immobilised ‘TAXI’-like endoxylanase inhibitors, activity by Xylazyme-AX method

Chain of endoxylanase M4 from Aspergillus niger (family 11), Megazyme (Aspergillus niger) (P55329 28-211): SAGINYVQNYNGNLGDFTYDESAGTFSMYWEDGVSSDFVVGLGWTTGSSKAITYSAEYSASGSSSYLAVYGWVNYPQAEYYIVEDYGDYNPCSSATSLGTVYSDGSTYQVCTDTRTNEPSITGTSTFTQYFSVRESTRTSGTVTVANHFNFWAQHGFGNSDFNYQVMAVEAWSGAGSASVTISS
Chain of endoxylanase of A. niger, var. awamori (Quest International enzyme preparation) (P55328 28-211): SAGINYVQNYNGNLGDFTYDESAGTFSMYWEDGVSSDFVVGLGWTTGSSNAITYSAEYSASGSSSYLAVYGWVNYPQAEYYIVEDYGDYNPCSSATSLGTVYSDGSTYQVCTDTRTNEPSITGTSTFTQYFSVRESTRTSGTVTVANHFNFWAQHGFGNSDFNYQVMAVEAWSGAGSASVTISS

Row | maximum of inhibition of endoxylanase activity (Xylazyme-AX method) [1] [%] | maximum of inhibition of endoxylanase activity (Xylazyme-AX method) [3] [%] | maximum of inhibition of endoxylanase activity (Xylazyme-AX method) [4] [%] | endoxylanase inhibition activity of periplasmic protein fraction (Xylazyme-AX method) [2] [%] | endoxylanase inhibition activity of periplasmic protein fraction (Xylazyme-AX method) [4] [%] | Substance | also measured
1 | > 95 | 15 | 92 | – | – | HvXI (Hordeum vulgare L. endoxylanase inhibitor) | level of inhibitor that reduces the endoxylanase activity with 50% (Xylazyme-AX method) [1]: 0.08 µg; level of inhibitor that reduces the endoxylanase activity with 50% (Xylazyme-AX method) [2]: 0.13 µg; maximum of inhibition of endoxylanase activity (Xylazyme-AX method) [2]: > 95%; level of inhibitor that reduces the endoxylanase activity with 50% (Xylazyme-AX method) [4]: 0.27 µg
2 | – | – | – | 99 | 88 | MBP (maltose binding protein)-TAXI fusion protein expressed by the pMAL-p2X-TAXI plasmid | –
3 | > 90 | 8 | 77 | – | – | TAXI II (Triticum aestivum L. endoxylanase inhibitor II) | quantity of inhibitor that reduces the endoxylanase activity with 50% (Xylazyme-AX method) [1]: 0.07 µg; maximum of inhibition as a function of inhibitor quantity [4]: 80%; quantity of inhibitor that reduces the endoxylanase activity with 50% (Xylazyme-AX method) [4]: 0.28 µg
4 | – | – | – | – | – | endoxylanase of A. niger, var. awamori (Quest International enzyme preparation) | endoxylanase activity retained on the affinity column [5]: 94%
5 | – | – | – | 96 | 81 | recombinant TAXI protein expressed by the pHOS31-TAXI plasmid | –
